According to the nanobody polyreactivity screen of Harvey et al. (2022):

Assay: yeast display, Sf9 membrane polyspecificity reagent, FACS + sequencing; frameworks hold sequencing errors
Procedure, shortened: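 A nanobody's polyreactivity label depends on the gate it was sorted from. Yeast display cells were stained with 10% biotinylated, detergent-solubilized Sf9 membrane reagent for 1 hour at 4 °C, enriched on streptavidin microbeads and sorted by FACS. The low and high (top ~1%) gates were set on anti-HA fluorescence for expression and streptavidin fluorescence for reagent binding.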

Sequence	polyreactivity (PSR sort gate)
QVQLVESGGGLVQAGGSLRLSCAASGSTYYTYAMGWYRQAPGKERELVAAITYSDGDTYYADSVKGRFTISRDNAKHTVYLQMNSLKPEDTAVYYCAADYQGQPGTGNLEYWGQGTQVTVSS	low polyreactivity
QVQLVESGGGLVQAGGSLRLSCAASGFTIAKYAMGWYRQAPGKERELVAAISSSGGRTYYADSVKGRFTISRDNAKNTVYLQMNSLKPEDTAVYYCAADFSGPFDYWGQGTQVTVSS	high polyreactivity
QVQLVESGGGLVQAGGRLRLSCAASGSNFGSNAMGWYRQAPGKESEFVAVITCRVGDTYYADSVKGRFTISRDNAKNTVYLQMYSLKPEDTAVYYCNVDWKVYGAPDYRIAWKYDYWGQGTQVTVSS	low polyreactivity
QVQLVESGGGLVQAGGSLRLSCAASGSIFVTYAMGWYRQAPGKERELVAVITWGGGSTYYADSVKGRFTISRDNAKNTVYLQMNSLKQEDTAVYYCAKDAFFTEIAIRDHIISHHYYWGQGTQVTVSS	low polyreactivity
QVQLVESGGGLVQAGGSLRLSCAASGRIFYYYAMGWYRQAPGKERELFADITWSGGSTYYADSVKGRFTISRDNAKNTVYLQMNSLKPEDTAVNYCNAVYFNYLLEYDYWGQGTQVTVSS	high polyreactivity
QVQLVESGGGLVQAGGSLRLSCAASGRTFKGYAMGWYRQAPGKERELVAAISYRGGSTYYADSVKGRFTISRDNAKNTVYLQMNSLKPEDTAVYYCAARWNRGRYDYWGQGTQVTVSS	high polyreactivity
QVQLVESGGGLVQAGGSLRLSCAASGSIFRRNAMGWYRQAPGKERELVAAISYSGGSTYYADSVKGRFTISRDNAKNTVYLQMNSLKPEDTAVYYCAADLYYGFGGYYYWGQGTQVTVSS	high polyreactivity
QVQHVESGRGLVQAGGSLRLSCAASGSIFTSNAMGWYRQAPGIERELVAAISIGGGTYYADSVKGRFTISRDNAKNTVYLQMNSLKPEDTAVYYCAARVGGRRVRFNYWGQGTQVTVSS	high polyreactivity
QVQLVESGGGILQAGGSLRLSCAASGITFVVYAMGCYRQAPGKERELVDSITYSGGSTYYADSVKGRFTISRDNAKNTVYLQMISLKPEDTAFYYCNADGYSIYYLPYSDYDAYDYWGQGTQVTVSS	low polyreactivity
QVQLVESGGGLVQAGGSLRLSCAASGFTFARNAMGWYRQAPGKERELVAAINRSGGSTYYADSVKGRFTISRDNAKNTVYLQMNRLKPEDTAVYYCNKPRLAQQGYDYWGQGNQVTVSS	high polyreactivity
QVQLVESGGGLVQAGGSLRLSCAASGRTFAYNAMGWYRQAPGKEREMVASITSGGSTNYADSVKGRFTISRDNAKNNVYLQINSLIPEDTAVYYCNIDGKYHLVLYDYWGQGTQVTVSS	low polyreactivity
QVQLVESGGGLVQAGGSLRLSCAASGSTISPNSMGWYRQAPGKERELVAAISSDASTNYADSVKGRFTISRDNAKNTVYLQRNCLTPDDTALYYCAADLWTLIYLTDTYGHWGQGTQVTVSS	low polyreactivity
QVQLVESGGGLVQAGGSLRLSCAASGFIFGDNAMGWYRQAPGKERELVAAITYSGGSTYYADSVKGRFTISRDYAKNTVYLQMNSLKPEDTAVYDCAASNQWSSTYLTYGYYYWGQGTQVTVSS	low polyreactivity
QVQLVESGGGLVQAGGSLRLSCAASGFIFQSYAMGWYRQAPGKERELVASISASGGSTYYADSVKGRFTISRDNAKNTVYLQMNSLKPEDTAVYYCAAGYWSYWSLRMDYWGQGTQVTVSS	high polyreactivity
QVQLVESGGGLVQAGGSLRLSCAASGFIFRWYAMGWYRQAPGKERELVASIDSSGTRTYYADSVKGRFTISRDNAKNTVYLQMNSLKPEDTAVYYCNAEPSSLGETDYDYWGQGTQVTVSS	low polyreactivity
QVQLVESGGGLVQAGGSLRLSCAASGRIFDWNTMGWYRQAPGKERELVAAISYDGSTYYADSVKGRFTISRDNAKNTVYLQMNSLKPEDTAVYYCNAYPLTQYFAQGYDYWGQGTQVTVSS	low polyreactivity
QVQLVESGGGLVQAGGSLLLSCAASGLIFYWYAMGWYRQAPGKERELVAAISGGDRTKYADSVKGRFTISRDNAKNTVYLQMISLKPEDSAVYYCATAPYDTSRRYGPYEYWGQRTQVTVSS	low polyreactivity
QVQLVESGGGLVQAGGSLRLSCAASGSTFSVNAMGWYIQAPGKEREFVAAIRWPGGSTYYADSVKGRFTISRDNAKNTVYLQLNSLKPEDTAVYYCAARIKYRYDWGQGTQVTVSS	low polyreactivity
QVQLVESGGGLFQAGGSLRLSCAASGSISIKNAMGWYRQAPGKERELVATITYNGGSTYYADSVKGRFTISRDNAKNTVYLQMNSLKPEDTAVYYCARDAFEPYDVGEYYYWGQGTQVTVSS	low polyreactivity
QVQLVESGGGLVQAGVSLRLSCAASGSIFGRYAMGWYRQAPGKERELVAAINDDSGRTYYADSVKGRFTISRDNAKNTVYLQKNSLKPEDTAVYYCATGRQSEYDYWGQGTQVTVSS	high polyreactivity
QVQLVESGGGLVQAGGSLRLSCAASGRIFFVYAMGWYRQAPGKERELVAAITASGGSTYYADSVKVRFTISRDNAKNSVYLQMNSLNPEDTAVYDCAAAGYGWGGYREYGWGQGTQVTVSS	low polyreactivity
QVQLVQSGGGLVQAGGSLSLSCAASGSIFPGYTRGWYRQAPGKERELVAAISRRGGSTYYADSVKGRFTISRDNAKNPGYLQMNSLKPEDTAVYYCAKVPDYRFEYWGQGTQVTVSS	high polyreactivity

Sequence	polyreactivity (PSR sort gate)
QVQLVESGGGLVQAGGSLRLSCAASGSISSQYGMGWYRQAAGKERDLVATIRDGGRTNYADSVKGRFTISRDNGKNTVYLQMNSLKPEDTAVYYCAALYWYYYTWPLYDYWVQGTQVTVSS	low polyreactivity
QVQLVESGGGLVQAGGSLRLSCAASGRTFHSYAMGWYRQAPGKERELVAAIRGRGGTTYYADSVKGRFTFSRDNAKNTVYLQMNSLKPEDTAVYYCNAVVRRYFTAAATYDYWGQGTQVTVSS	high polyreactivity
QVQLVESGAGLVQAGGSLRLSCAASGSIFYDYAMGVYRQAPGKERELVAAISSSGITYYADSVKGRFTISRDNAKNTVYLQMNSLKPVDTAVYYCNARSYLRDYYYWGQGTQVTVSS	high polyreactivity
QVQLVESGGGLVQARGSLRLSCAASGRTVTYYAMGWYRQAPGKERELVAAISSGDSTYYADSVKGRFTISRDNAKNTVYLQMNSLKPEDTAVYYCAVDHVSRYYGYPEITYDYWGQGTQVSVSS	low polyreactivity
QVQLVESGGGLVQAGGSLRLSCAASGRIFADYAMGWYRQAPGKETELVAAISSTSSTNYADSVKGRFTISRDNAKNTVYLQMNSLKPEDTAVYYCAKRIGHLPFRPYDYWGQGTQVTVSS	low polyreactivity
QVQLVESGGGLVQARGSLRLSCAASGLIFYGNAMGWYRQAPGKERELVAAISRRGGRTYYADSVKGRFTISRDNAKNTVYLQMNSLKPEDTAVYYCAKRYKSIPRYWSKEYDYWGQGTQVTVSS	high polyreactivity
QVQLVESGGGLVQAGGSLRLSCAASGYTSRSNAMGWYRQAPGKERELVAAIRGGGNTKYADSVKGRFTISRDTAKNTVYLQMNSLKPEDTAVYYCAVVTGSFRTRYTYYYWGLGTQVTVSS	high polyreactivity
QVQLVESGGGLVQAGGSLRLSCAASGLTFSIYAMGWYRQAPGKERELVASITSSGGSTYYADSVKGRFTISRDNAKNTVYLQMNSLKPEDTAVYYCATGRSRDYDYWGQGTQVTVSS	high polyreactivity
QVQLVESGGGLVQAGGSLRLSCAASGSTFAKYAMGWYRQAPGKERELVAAISSSGTSTYYADSVKGRFTISRDNAKNTVYLQMNSLKPEDTAVYYCAASYRNRYIAFYYWGQGTQVTVSS	low polyreactivity
QVQLVESGGGLVQAGGSLRLSCAASGSIFEDYAMGWYRQAPGKERELVAGINWSGGSTYYADSVKGRFTISRDNAKNTVYLQMNSLKPEDTAVYYCAAKAFYYYYTEHDYWGQGTQVTVSS	high polyreactivity
QVQLVESGGGLVQAGGSLRLSCAASRITSYPYAMGWSRQGPGKERELVAAISKRGGGTYYADSVKGPFTISRDNAMNTVYLQLNSLKPVDTAVYYCAKSWGPTTYKIVPAYGYWGQGTQVTVSS	high polyreactivity
QVQLVESGGGLVQAGGSHRLSCAASGRIYYYTMGWYRQAPGKERELVATITSSGSSTYYADSVKGRFTISRDNAKNTFYLQLNRLKPEDTAVYYCAAAGGGVRKVWGGSRYGYWGQGTQVTVSS	high polyreactivity
QVQLVESGGGLVHAGGSLRLSCSASGSILKSYAMGWYRQAPGKERDLVAAITYRDGSTYYADSVKGRFTISRDTAKNTVYLQMISLKPEDTAVYYCASEPYWWNVFYPGYNYWGQGNQVTVSS	high polyreactivity
QVQLVESGGGLVQAGGSLRLSCAASGLTFSLYAMGWYRQAPGKERELVAAISWTGGSTYYADSVKGRFTISRDNAKNTVYLQMNSLKPEDTAVYYCNARYTLFARYCYDYWGQGPQVTVSS	low polyreactivity
QVQLVESGGGLVQAGGSLRLSCAASGSIFVEYAMGWYRQAPGKERELVAAISYSGSSTNYADSVKGRFTISRDNAKNTVYLQMNSLKPEDTAVYYCNADGTGGEQKPYYELDYWGQGTQVTVSS	low polyreactivity
QVQLVESGGGLVQAGGSLRLSCAASGNIFYKNNMGWYRQAPGKERELVAAISFSGGGTYYADSVKGRFTISRDNAKNTVYLQMNSLKPEDTAVYYCAAEYTYGWTYRPFDYWGQGTQVTVSS	high polyreactivity
QVQLVESGGGLVQAGGSLRLSCAASGRPSLLMLWDGIDRRLGKKGSWLPLLTLVTPTTYADSVKGRFTISRDNAKNTVYLQMNSLKPEDTAVYYCNADFRPLDHYVNWYYYWGQGTQVTVSS	low polyreactivity
QVQLVETGGGLVQAGGSLSLSCAASGRTSKINAMGWYRQAPGKERELVASISRTGGTTYYADSVKGRFTISRDNAKNTVYLQMNSVKPEDTAVYYCAVSDFGLRDSLTIYDEYDYWGQGTQVTVSS	high polyreactivity
QVQLVESGGGLVQAGGSLRLSCAASGRISVANAMGWYIQAPGKERELVARISEGVGSTYYADSVKGRFTISRDTAKNTVYLQMNSLKPEDTAVYYCAAYQDYVYSESLFSVSARMYYWGQGTQVTVSS	low polyreactivity
QVQIVESGGGLVQAGGSLRLSCADSGFISSHYAMGWYRQAPGKERELVAAISTNGGSTYYADSVKGRFTISRDNAKNTVYLQMNSLKPEDTSVYYCAAEFAVSFYWSWLGQDYNYWGQGTQVTVSS	high polyreactivity
QVQLVESGGGLVQAGGSLRLSCAASGSIFTKYAMGWYRQAPGKERELLAAITSSSGRTYYADSVKGRFTISRDNAKNTVYLQMNSLKPEDTAVYYCNRGKRVAVSYRPGGYDYWGQGTQVTVSS	high polyreactivity
